Here are results for 25 molecules from patent US20230183322A1 (PEKING UNIVERSITY, published 2023).

B1: ABU-288 (antibody, V domains shown)
VH: QVQLQESGPGLVKPSQTLSLTCTVSGGSISSGLYHWSWIRQPAGKGLEWIGRIFSSGSTAYSPSLKSRVIISADTSKNQFSLKLSSVTAADTAVYYCARDSPLKFDSFGYPLYGMDVWGQGTTVTVSS
VL: DIQMTQSPSSLSASVRDKVTITCRASQSISSCLNWYQQKPGKAPKVLIYAASSLQSGVPSRFSGSGSGTDFTLTISSVQPEDFATYYCQQSYSVPHTFGQGTKVEIK
B2: ABU-305 (antibody, V domains shown)
VH: QVQLVQSGAEVKKPGASVKVSCKASGYTFTSYGISWVRQAPGQGLEWMGWISAYNGNTNYAQKLQGRVTMTTDTSTSTAYMELRSLRSDDTAVYYCARDGHSAWGAFDIWGQGTMVTVSS
VL: not shown
B3: ABU-181 (antibody, V domains shown)
VH: QVQLQESGPGLVKPSQTLSLICTVSDDSISSGSYYWSWIRQPAGKGLEWIGRIYAGESTNYNPSLKSRVIISVDTSKKQFSLRLSSVTAADTAVYYCARGAVVTPFGLDSWGQGTLVTVSS
VL: SYELTQPPSVSVSPGQTARITCSGDALPKQYAYWYQQKTGQAPVLVIYKDSERPSGIPERVSGSSSGTTVTLTISGVQAEDEADYYCQSADSSGTWVFGGGTKLTVL
B4: ABU-323 (antibody, V domains shown)
VH: EVQLVESGGGLVQPGGSLRLSCAASGFTVSSNYMSWVRQAPGKGLEWVSVIYSGGTTYYADSVKGRFTISRHNSKNTLYLQMNSLRAEDTAVYYCARDWGEYYFDYWGQGTLVTVSS
VL: not shown
B5: ABU-394 (antibody, V domains shown)
VH: B4 VH with V12I, T56S, H72D, D98S, W99Y, E101D
VL: DIQLTQSPSSLSASVGDRVTITCRASQGISSYLAWYQQKPGKAPKLLIYAASTLQSGVPSRFSGSGSGTDFTLTISSLQPEDFATYYCQQLNSFGPGTKVDIK
B6: ABU-393 (antibody, V domains shown)
VH: B4 VH with V12I, T56S, H72D, W99Y, E101D, Y103W, Y106P
VL: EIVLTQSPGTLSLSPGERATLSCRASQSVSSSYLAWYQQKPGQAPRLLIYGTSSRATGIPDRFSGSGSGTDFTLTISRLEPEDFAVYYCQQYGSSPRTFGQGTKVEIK
B7: ABU-329 (antibody, V domains shown)
VH: EVQLVESGGGLVQPGGSLRLSCAASGFTFSSYWMHWVRQAPGKGLVWVSRIKSDGSSTSYADSVKGRFTISRDNAKNTLYLQMNSLRAEDTAVYYCAGKKIYYGSSFDPWGQGTLVTVSS
VL: NFMLTQPHSVSESPGKTVTISCTRSSGSIASNYVQWYQQRPGSAPTTVIYEDNQRPSGVPDRFSGSIDSSSNSASLTISGLKTEDEADYYCQSYDSSNQVFGGGTKLTVL
B8: ABU-205 (antibody, V domains shown)
VH: QVQLVQSGAEVKKPGSSVKVSCKASGGTFSSYAISWVRQAPGQGLEWMGRIIPIFGTANYAQKFQGRVTITADESTSTAYMELSSLRSEDTAVYYCARAAYYYDSSGYGWFDPWGQGTLVTVSS
VL: not shown
B9: ABU-254 (antibody, V domains shown)
VH: B8 VH
VL: not shown
B10: ABU-312 (antibody, V domains shown)
VH: EVQLLESGGGLVQPGGSLRLSCAASGFTFSTYAMSWVRQAPGKGLEWVSVISGSGGSTYYADSVKGRFTISRDNSKNTLYLQMNSLRAEDTAVYYCAKEYYYDSSGYYYREDAFDIWGQGTMVTVSS
VL: DIQMTQSPSAMSASVGDRVTITCRASQGISNYLAWFQQKPGKVPKRLIYAASSLQSGVPSRFSGSGSGTEFTLTISSLQPEDFATYYCLQHNSYPRTFGQGTKVEIK
B11: ABU-211 (antibody, V domains shown)
VH: EAQLVESGGGLVQPGRSLTVSCAVSGFTFDDYAMHWVRQAPGKGLEWVSSISWNSEKIAYADSVKGRFTVSRDNAKNSLYLQMTSLRPEDTALYYCARDKGSGSYYSGAYYYYMDVWGKGTTVTVSS
VL: SDALTQPPSVSVAPGKTAAITCGGDNIGSKNVHWYQQKPGQAPLLVVFDDGDRPSGIPERFSGSNSGNTATLTISRVEAGDEADYYCQVWDGGSDDRGYVFGTGTKVTVL
B12: ABU-339 (antibody, V domains shown)
VH: EMQLLESGGGLVQPGGSLRLSCAASGFTFFSYALSWVRQAPGKGLEWVSGISGISDSGGNTYYADSVKGRFTISRDNSQNMLYLQMNSLRVEDTAVYYCAKERRPVLRYFDWLPIEAPDYWGPGTLVTVSS
VL: AIQLTQSPSSLSASVGDRVTITCRASQGISSSLAWYQQKPGKAPKLLIYSASTLQSGVPSRFSGSGSGTDFTLTITSLQPEDFATYYCQQLNSYPLTFGGGTKVEIK
B13: ABU-343 (antibody, V domains shown)
VH: QVQLVQSGAEVKKPGASVKVSCKASGYTFTNYYMHWMRQAPGQGLEWMGIINPSGGSTSYAHQFQGRVTMTRDTSTSTVYMEMSSLRSEDTAVYFCVVGIGYCSSPSCPPLRWFDYWGQGTLVTVSS
VL: B12 VL with S32A, L46V, S50D, T53G, S65G, T76S, L91F, S93D
B14: ABU-316 (antibody, V domains shown)
VH: QVQLVESGGGVVQPGRSLRLSCAASGFTFSSYGMHWVRQAPGKGLEWVAVISYDGSNKYYVDSVKGRFTISRDNSKNTLYLQMNSLRAEDTAVYYCAKDPYYYGSGSSNFFDYWGQGTLVTVSS
VL: SYVLTQPPSVSVAPGKTARITCGGNNIGSKSVHWYQQKPGQAPVLVVYDDNDRPSGIPDRFSGSNSGNTATLTISRVEAGDEADYYCQVWDSSSDHYWVFGGGTKLTVL
B15: ABU-319 (antibody, V domains shown)
VH: B14 VH with S52W, V61A, D99G, P100E, Y101G, Y102V, S108R, N109Y, F111L
VL: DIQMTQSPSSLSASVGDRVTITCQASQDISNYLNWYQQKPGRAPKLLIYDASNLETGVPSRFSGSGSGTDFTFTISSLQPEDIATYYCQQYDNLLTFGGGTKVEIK
B16: ABU-298 (antibody, V domains shown)
VH: QVQLVQSGAEVKKPGASVKVSCKASGYTFTSYGISWVRQAPGQGLEWMGWISAYNGNTNYAQKLQGRVTMTTDTSTSTAYMELRSLRSDDTAVYYCARDESGSYYGDQAFDIWGQGTMVTVSS
VL: not shown
B17: ABU-289 (antibody, V domains shown)
VH: QVQLVQSGAEVKKPGSSVKVSCKASGGTFSSYTISWVRQAPGQGLEWMGRIIPILGIANYAQKFQGRVTITADKSTSTAYMELSSLRSEDTAVYYCARGIVGATPGYFDYWGQGTLVTVSS
VL: EIVMTQSPATLSVSPGERATLSCRASQSVSSNLAWYQQKPGQAPRLLIYGASTRATGIPARFSGSGSGTEFTLTISSLQSEDFAVYYCQQYNNWLTFGGGTKVEIK
B18: ABU-210 (antibody, V domains shown)
VH: EVQLVESGGGLVQPGRSLRLSCAASGFTFDDYAMHWVRQAPGKGLEWVSGISWNSGTIGYEDSVKGRFIISRDNAKNSLYLQMNSLRAEDTALYYCAKEPLFGETYGMDVWGQGTTVTVSS
VL: QSALTQPASVSGSPGQSITISCTGTSSDVGGYNYVSWYQHHPGKAPKLMIYEVSNRPSGVSNRFSGSKSANTASLTISGLQTEDEADYYCSSYTSISTVLFGGGTKLTVL
B19: ABU-145 (antibody, V domains shown)
VH: QVQLQESGPGLVKPSQTLSVTCTVSGGSINRDGHYWIWIRQHPEKGLEWLGYIYSGRNTFYNPSLRSRLSISADTSKSQFSLNLHSVTAADTAVYYCAKMYSDYDDNYYGLDVWGRGTTVTVSS
VL: EIVLTQSPGTLSLSPGERATLSCRASHTISSSYLAWYQQKAGQAPRLLIYAASSRATGIPARFSGSGSGTDFTLTISRLEPEDFAVYYCQQFDNSPPWTFGRGTKVEMR
B20: ABU-328 (antibody, V domains shown)
VH: EVQLVESGGGLVQPGGSLRLSCAASGFTVSSNYMSWVRQAPGKGLEWVSVIYSGGSTYYADSVKGRFTISRDNSKNTLYLQMNSLRAEDTAVYYCARLSGTGYGGDGGWFDPWGQGTLVTVSS
VL: QSALTQPASVSGSPGQSITISCTGTSSDVGSYNLVSWYQQHPGKAPKLMIYEVSKRPSGVSNRFSGSKSGNTASLTISGLQAEDEADYYCCSYAGSSLWVFGGGTKLTVL
B21: ABU-317 (antibody, V domains shown)
VH: QVQLVESGGGVVQPGWSLRLSCAASGFTFSSFAMYWVRQAPGKGLEWVAVISYDGANKYYADSVKGRFTISRDNSKNTLYLQVNSLRVEDTAVYYCARGPDYYDTGGYFDLWGRGTLVTVSS
VL: QSVLTQPPSVSAAPGQKVTISCSGSSSNIGNNYVSWYQQLPGTAPKLLIYDNNKRPSGIPDRFSGSKSGTSATLGITGLQTGDEADYYCGTWDSSLSAGVFGGGTKLTVL
B22: ABU-320 (antibody, V domains shown)
VH: QVQLVESGGGVVQPGRSLRLSCAASGFTFSSYATHWVRQAPGKGLEWVAVISYDGSNKYHADSVKGRFTISRDNSKNTLYLQMNSLRAEDTAVYYCAREWSRGAVAGTGYFDYWGQGTLVTVSS
VL: SYVLTQPPSVSVAPGKTARITCGGNNIGSKSVHWYQQKPGQAPVLVVYDDSDRPSGIPERFSGSNSGNTATLTISRVEAGDEADYYCQVWDSSGDHWVFGGGTKLTVL
B23: ABU-325 (antibody, V domains shown)
VH: EVQLVESGGGLIQPGGSLRLSCAASGFTVSSNYMSWVRQAPGKGLEWVSVIYSGGSTYYADSVKGRFTISRDNSKNTLYLQMNSLRAEDTAVYYCARDRRVGSPYYYYYMDVWGKGTTVTVSS
VL: QTVVTQEPSLTVSPGGTVTLTCASSTGAVTSGYYPNWFQQKPGQAPRALIYSTSNKHSWTPARFSGSLLGGKAALTLSGVQPEDEAEYYCLLYYGGAPVFGGGTKLTVL
B24: ABU-330 (antibody, V domains shown)
VH: QVQLQESGPGLVKPSQTLSLTCTVSGGSISSGGYYWSWIRQHPGKGLEWIGYIYYSGSTYYNPSLKSRVTISVDTSKNQFSLKLSSVTAADTAVYYCARGGSGSGWYGGRFDYWGQGTLVTVSS
VL: EIVLTQSPATLSLSPGERATLSCRASQSVSSYLAWYQQKPGQAPRLLIYDASNRATGIPARFSGSGSGTDFTLTISSLEPEDFAVYYCQQRSNWLFTFGPGTKVDIK
B25: ABU-337 (antibody, V domains shown)
VH: QVQLVESGGGVVQPGRSLRLSCAASGFTFSTSAMHWVRQAPGKGLEWVAGISYDGSNEHLDSVKGRFTISRDNSKNTLYLQMSSLRPEDTAVYYCARCPFWNYGHCYLDNWGQGTLVTVSS
VL: B24 VL with Y49F, S92N, N93K, L95P, F96G, P100Q, D105E

Where a chain is given by its changes, count along the chain named. Where only a bound is given, the exact number is not on record here.

The target of the assay is biotin-labeled SARS-COV-2 RBD domain (SARS-CoV-2, UniProt P0DTC2 319-541). In words: SPR, Biacore T200, biotin-RBD on SA chip, antibody as analyte.
As for B1, the equilibrium dissociation constant (Kd) was under 1 nM.

The molecule B2 came in with a Kd of under 20 nM.

Turning to B3, the Kd is under 10 nM.

As to B4, the Kd was under 20 nM.

For the molecule B5, the dissociation constant (Kd) is under 20 nM.

In turn, B6 registered a Kd of under 20 nM.

Turning to B7, the Kd was under 10 nM.

Turning to B8, the Kd was under 10 nM.

B9 showed a Kd of under 10 nM.

Molecule B10 gave a Kd of under 20 nM.

On to B11, for which the Kd is under 20 nM.

B12 registered a dissociation constant Kd of under 20 nM.

The molecule B13 yielded a Kd of under 20 nM.

Take B14: the Kd is under 10 nM.

As to B15, the Kd was under 10 nM.

Regarding B16, the Kd is under 20 nM.

With B17, the Kd was under 10 nM.

The molecule B18 displayed a dissociation constant Kd of under 10 nM.

In the case of B19, the Kd was under 10 nM.

In the case of B20, the Kd was under 10 nM.

B21 yielded a Kd of under 20 nM.

The molecule B22 showed a Kd of under 10 nM.

With B23, the Kd was under 10 nM.

B24 yielded a Kd of under 10 nM.

B25 came in with a Kd of under 20 nM.
